Consider 29 sequences from the supplement of paper PMC10567573.

The nature of the data set: protein stability index of a GFP-peptide fusion (GPS, HEK-293T) (PSI 1-6); higher = more stable. Conditions: c terminus: a fixed tail appended.

± gives the standard deviation.
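Further: 24-mer peptide tiles fused after GFP, lentivirally expressed, FACS-sorted into six equal bins by GFP/DsRed ratio, decoded by Illumina sequencing, PSI is the read-weighted mean bin number.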

Regarding RSSVSRVFDCLKDGMRNKETLEGR [MED27], the protein stability index reads like this: (treatment: DMSO) 4.27 ± 0.34; (treatment: MLN4924 1 uM, 8 h) 4.38 ± 0.47.

Take RTRPRKPIRCGEVLFAVGGWCSGD [KLHL20]: the protein stability index runs as follows: (treatment: DMSO) 2.39 ± 0.28; (treatment: MLN4924 1 uM, 8 h) 2.17 ± 0.33.

For RTRRRLSRNRDPGRLILSTIRLRP [PWWP2B], the protein stability index runs as follows: (treatment: DMSO) 4.41 ± 0.45; (treatment: MLN4924 1 uM, 8 h) 4.32 ± 0.21.

Turning to RTYFHEFGHVMHQICAQVSFFFPP [NLN], the protein stability index runs as follows: (treatment: DMSO) 2.43 ± 0.43; (treatment: MLN4924 1 uM, 8 h) 3.41 ± 0.054.

As for RVLDGKEAKAVGLISHVLEQNQEG [AUH], the protein stability index reads like this: (treatment: DMSO) 4.53 ± 0.38; (treatment: MLN4924 1 uM, 8 h) 4.95 ± 0.088.

Take RVPSFESFEDDCSQSLCLNKPTMS [ETS2]: the protein stability index (treatment: DMSO) came out at 4.6 ± 0.16 and the protein stability index (treatment: MLN4924 1 uM, 8 h) stood at 4.55 ± 0.16.

As for SAASVYAGAGGSGSRISVSRSTSF [KRT18], the protein stability index by setting is: (treatment: DMSO) 3.66 ± 0.066; (treatment: MLN4924 1 uM, 8 h) 3.59 ± 0.28.

Consider SAEINQDLNIQLLKDGYRLDEIPD [FAM219A], for which the protein stability index stood at 4.91 ± 0.062 (treatment: DMSO) and 5.08 ± 0.18 (treatment: MLN4924 1 uM, 8 h).

With SARCVVSFNILVEDRVKLFGIEIE [PCDHGA10], the protein stability index is, setting by setting: (treatment: DMSO) 2.12 ± 0.68; (treatment: MLN4924 1 uM, 8 h) 1.95 ± 0.27.

In turn, SARFWIPGEPNNAGNNEHCGNIKA [CD207] gave a protein stability index (treatment: DMSO) of 4.03 ± 0.47 and a protein stability index (treatment: MLN4924 1 uM, 8 h) of 4.18 ± 0.41.

Consider SCHGYTLPGACNIPANVSNCNWFC [KRT33B], for which the protein stability index is, setting by setting: (treatment: DMSO) 2.53 ± 0.52; (treatment: MLN4924 1 uM, 8 h) 2.42 ± 0.5.

For the sequence SDAWTYCISKNEWIQFNHPYTEKP [KLHDC2], the protein stability index runs as follows: (treatment: DMSO) 2.34 ± 0.18; (treatment: MLN4924 1 uM, 8 h) 2.37 ± 0.26.

In the case of SDSLLQSWNSQSSLLDVQRVPSFE [ETS2], the protein stability index was 3.92 ± 0.3 (treatment: DMSO) and 3.76 ± 0.17 (treatment: MLN4924 1 uM, 8 h).

With SEAKSHSSADDASAWSNIQEAPLQ [FAN1], the protein stability index worked out at 5.29 ± 0.31 (treatment: DMSO) and 5.04 ± 0.46 (treatment: MLN4924 1 uM, 8 h).

As to SEEGSWAQTLAYGDMNHEWIGNEW [PPFIA4], the protein stability index came to 3.89 ± 0.41 (treatment: DMSO) and 3.8 ± 0.28 (treatment: MLN4924 1 uM, 8 h).

Take SEGEAMEICSEPVAASPAPAGERR [ZNF511]: the protein stability index stood at 5.38 ± 0.28 (treatment: DMSO) and 5.22 ± 0.27 (treatment: MLN4924 1 uM, 8 h).

With SEGRRVSFGVDEEERVRVLQGVRL [CHCHD6], the protein stability index runs as follows: (treatment: DMSO) 4.38 ± 0.19; (treatment: MLN4924 1 uM, 8 h) 4.38 ± 0.3.

Turning to SELQREMEALAAETNLLLAQKQRL [TEKT4], the protein stability index is 4 ± 0.53 (treatment: DMSO) and 4.2 ± 0.13 (treatment: MLN4924 1 uM, 8 h).

Regarding SENKIVGIGYNGMPNGCSDDVLPW [DCTD], the protein stability index reads like this: (treatment: DMSO) 3.46 ± 0.35; (treatment: MLN4924 1 uM, 8 h) 3.56 ± 0.15.

Turning to SESSPSDFSVSLKASGKNKHFKVQ [NCK2], the protein stability index by setting is: (treatment: DMSO) 4.39 ± 0.18; (treatment: MLN4924 1 uM, 8 h) 4.33 ± 0.17.

Take SEVSFEGAYGNLKRLYDKAAKMYH [SMG5]: the protein stability index was determined as 2.44 ± 0.29 (treatment: DMSO) and 2.23 ± 0.29 (treatment: MLN4924 1 uM, 8 h).

Take SFFLQIYLIMIFLGLYINFRHLYK [HACD3]: the protein stability index was determined as 2.79 ± 0.2 (treatment: DMSO) and 2.52 ± 0.041 (treatment: MLN4924 1 uM, 8 h).

With SFRENWQRAWVRALNEQACRNGSS [C2CD2L], the protein stability index came to 2.7 ± 0.24 (treatment: DMSO) and 2.45 ± 0.49 (treatment: MLN4924 1 uM, 8 h).

Turning to SGGELFDFLAEKESLTEDEATQFL [DAPK3], the protein stability index by setting is: (treatment: DMSO) 4.84 ± 0.19; (treatment: MLN4924 1 uM, 8 h) 4.96 ± 0.47.

Regarding SGISFPSVVDHPMPEERASKYENY [HESX1], the protein stability index is, setting by setting: (treatment: DMSO) 4.25 ± 0.32; (treatment: MLN4924 1 uM, 8 h) 4.22 ± 0.3.

With SGPQPRLPPCLLPLSPPTAPDRAT [TRIB3], the protein stability index stood at 4.48 ± 0.27 (treatment: DMSO) and 4.61 ± 0.28 (treatment: MLN4924 1 uM, 8 h).

As to SGSQRHMVGQKDSVILSVKFSPFG [TLE6], the protein stability index runs as follows: (treatment: DMSO) 2.2 ± 0.27; (treatment: MLN4924 1 uM, 8 h) 2.49 ± 0.22.

SHCDSPSPQEDGQIMFDVEMHTSR [BNIP3L]: the protein stability index reads like this: (treatment: DMSO) 4.79 ± 0.31; (treatment: MLN4924 1 uM, 8 h) 4.8 ± 0.38.

Sequence SHQNLRVDDLSVEWDAMGGKVQDI [FSD1] registered a protein stability index (treatment: DMSO) of 4.49 ± 0.19 and a protein stability index (treatment: MLN4924 1 uM, 8 h) of 4.47 ± 0.28.
